“And” between values parts separate entries of the source, which are not always exact repeats. Equal entries are not always repeated. Where no end group is shown, it is not given here. cellulose membrane = derivatized cellulose membrane (SPOTs) solid support, attached to the peptide C-terminus
What was measured:
[1] = target: T1, human granulocyte-macrophage colony stimulating factor (GM-CSF) (human, UniProt P04141 18-144); assay: BIACORE
T1 construct: The assays used recombinant human GM-CSF (in-house, PeproTech, or PE-labeled from R&D Systems); also called hGM-CSF; human GM-CSF

h IL-3 = target: T2, h IL-3 (human, UniProt P08700 20-152); assay: antigen panel ELISA, antigen coated on the plate, O.D. 450
T2 sequence (looked up): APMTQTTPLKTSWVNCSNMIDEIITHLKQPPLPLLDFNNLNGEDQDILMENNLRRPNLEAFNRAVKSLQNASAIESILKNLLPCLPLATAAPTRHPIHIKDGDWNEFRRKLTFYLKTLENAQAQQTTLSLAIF

h IL-5 = target: T3, h IL-5 (human, UniProt P05113 20-134); assay: as above
T3 sequence (looked up): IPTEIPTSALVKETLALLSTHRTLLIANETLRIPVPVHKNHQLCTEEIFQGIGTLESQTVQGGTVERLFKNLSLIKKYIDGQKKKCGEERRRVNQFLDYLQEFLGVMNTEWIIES

hIL-1a = target: T4, hIL-1a (human, UniProt P01583 113-271); assay: as above
T4 sequence (looked up): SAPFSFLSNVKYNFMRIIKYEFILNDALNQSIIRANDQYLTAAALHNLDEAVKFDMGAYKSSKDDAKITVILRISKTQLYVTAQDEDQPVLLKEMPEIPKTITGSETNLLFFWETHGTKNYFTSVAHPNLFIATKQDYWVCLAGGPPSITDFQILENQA

murine GM-CSF = target: T5, murine GM-CSF (murine, UniProt P01587 18-141); assay: as above
T5 construct: also called mGM-CSF
T5 sequence (looked up): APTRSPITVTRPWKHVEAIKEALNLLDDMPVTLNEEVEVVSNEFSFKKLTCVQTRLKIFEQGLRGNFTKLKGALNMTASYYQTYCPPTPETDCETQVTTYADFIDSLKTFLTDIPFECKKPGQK

BSA = target: T6, BSA (bovine, UniProt P02769 25-607); assay: as above
T6 construct: also called bovine serum albumin

h IL-2 = h IL-2 (human, UniProt P60568 21-153); assay: as above
IL-6 = IL-6 (Homo sapiens (Human), UniProt P05231 30-212); assay: as above
h IL-4 = target: T7, h IL-4 (human, UniProt P05112 25-153); assay: as above
T7 sequence (looked up): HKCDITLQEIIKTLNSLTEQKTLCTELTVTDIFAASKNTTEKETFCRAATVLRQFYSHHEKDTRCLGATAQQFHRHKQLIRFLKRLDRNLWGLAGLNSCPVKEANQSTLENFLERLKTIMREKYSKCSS

hIL-13 = hIL-13 (human, UniProt P35225 35-146, limits assumed); assay: as above
human mesothelin [2] = target: T8, human mesothelin (human, UniProt Q13421 296-598, limits assumed); assay: antigen-specific ELISA (subsequent study, data not shown)
T8 construct: also called human Mesothilin

HEL [3] = target: T9, HEL (UniProt P00698 19-147); assay: as above
SEB [4] = target: T10, SEB (UniProt P01552 28-266); assay: as above
T10 sequence: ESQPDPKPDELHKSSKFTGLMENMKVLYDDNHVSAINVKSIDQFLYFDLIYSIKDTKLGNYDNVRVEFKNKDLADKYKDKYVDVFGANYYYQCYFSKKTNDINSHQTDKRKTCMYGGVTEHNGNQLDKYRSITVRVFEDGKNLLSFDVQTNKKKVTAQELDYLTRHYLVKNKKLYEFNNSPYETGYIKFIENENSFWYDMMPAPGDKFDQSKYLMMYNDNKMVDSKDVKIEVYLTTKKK

[5] = target: T11, human GM-CSF overlapping 12-mer peptide #23; assay: SPOTs peptide membrane, 1 mg/ml purified 10G9
T11 construct: Only 'possibly' recognized by G9
T11 peptide: KENLKDFLLVIP-{cellulose membrane}

human mesothelin [6] = target: T8, human mesothelin; assay: antigen specific ELISA (subsequent study, data not shown)
HEL [7] = target: T9, HEL; assay: as above
SEB [8] = target: T10, SEB; assay: as above
[9] = target: T12, human GM-CSF overlapping 12-mer peptide, SEQ ID NO:37 (human); assay: SPOT peptide membrane probed with G9, HRP goat anti-human IgG, ECL
T12 construct: also called peptide #14
T12 peptide: YKQGLRGSLTKL-{cellulose membrane}

[10] = target: T13, human GM-CSF overlapping 12-mer peptide, SEQ ID NO:38 (human); assay: as above
T13 construct: also called peptide #15
T13 peptide: RGSLTKLKGPLT-{cellulose membrane}

[11] = target: T14, human GM-CSF overlapping 12-mer peptide, SEQ ID NO:35 (human); assay: as above
T14 construct: also called peptide #6
T14 peptide: ARRLLNLSRDTA-{cellulose membrane}

[12] = target: T15, human GM-CSF overlapping 12-mer peptide, SEQ ID NO:36 (human); assay: as above
T15 construct: also called peptide #13
T15 peptide: TRLELYKQGLRG-{cellulose membrane}

[13] = target: T1, human granulocyte-macrophage colony …; assay: apparent affinity, method not given

T1 sequence (P04141 18-144): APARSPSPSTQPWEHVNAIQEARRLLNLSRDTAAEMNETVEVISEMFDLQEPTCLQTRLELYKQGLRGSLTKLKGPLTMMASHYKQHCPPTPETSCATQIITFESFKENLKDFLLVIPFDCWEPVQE
T8 sequence (Q13421 other isoform, or with tags, fused parts or gaps limits assumed): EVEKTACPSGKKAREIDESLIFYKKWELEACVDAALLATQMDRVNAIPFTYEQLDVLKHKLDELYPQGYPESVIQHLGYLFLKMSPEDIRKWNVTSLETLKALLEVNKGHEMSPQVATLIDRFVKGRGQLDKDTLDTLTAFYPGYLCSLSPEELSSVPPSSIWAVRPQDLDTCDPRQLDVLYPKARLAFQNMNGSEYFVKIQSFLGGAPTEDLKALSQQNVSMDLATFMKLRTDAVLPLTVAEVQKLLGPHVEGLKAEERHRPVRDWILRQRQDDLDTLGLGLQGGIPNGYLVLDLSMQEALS
T9 sequence (P00698 19-147): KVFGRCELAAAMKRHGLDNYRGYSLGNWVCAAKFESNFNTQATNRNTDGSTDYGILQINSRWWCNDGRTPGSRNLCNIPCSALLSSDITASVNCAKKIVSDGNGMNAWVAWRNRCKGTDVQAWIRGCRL
T6 sequence (P02769 25-607 limits assumed): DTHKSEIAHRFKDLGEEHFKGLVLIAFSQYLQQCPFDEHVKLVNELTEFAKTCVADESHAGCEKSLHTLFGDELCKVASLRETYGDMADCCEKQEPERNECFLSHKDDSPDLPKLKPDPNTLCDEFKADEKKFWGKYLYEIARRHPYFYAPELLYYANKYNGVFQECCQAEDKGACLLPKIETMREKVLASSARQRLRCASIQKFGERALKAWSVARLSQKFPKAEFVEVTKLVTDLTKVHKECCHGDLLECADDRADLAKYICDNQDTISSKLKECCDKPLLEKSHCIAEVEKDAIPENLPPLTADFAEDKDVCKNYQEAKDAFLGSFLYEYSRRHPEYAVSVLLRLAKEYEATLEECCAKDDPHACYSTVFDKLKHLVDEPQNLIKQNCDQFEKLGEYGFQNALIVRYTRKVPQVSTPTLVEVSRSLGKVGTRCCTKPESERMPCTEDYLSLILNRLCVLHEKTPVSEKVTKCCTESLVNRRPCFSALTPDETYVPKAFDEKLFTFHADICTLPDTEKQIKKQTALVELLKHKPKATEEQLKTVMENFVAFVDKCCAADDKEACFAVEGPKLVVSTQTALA
Sequence of h IL-2 (P60568 21-153 limits assumed): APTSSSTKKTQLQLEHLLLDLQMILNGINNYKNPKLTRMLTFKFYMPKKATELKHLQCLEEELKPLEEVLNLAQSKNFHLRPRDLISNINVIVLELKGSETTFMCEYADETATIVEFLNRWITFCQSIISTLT
Sequence of hIL-13 (P35225 35-146 limits assumed): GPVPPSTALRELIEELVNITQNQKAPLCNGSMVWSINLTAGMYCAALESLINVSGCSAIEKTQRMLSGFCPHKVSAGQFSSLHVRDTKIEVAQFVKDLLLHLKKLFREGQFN

B1: anti-GM-CSF human IgG1 monoclonal antibody E10 (antibody, V domains shown)
VH: QVQLEESGGGVVQPGRSLRLSCAASGFTFTNYGMHWVRQAPGKGLEWLALISYDGNRQYYADSVKGRFTVSRDNPNNTLHLEMKSLRAEDSAIYYCARGAGVLLWFGDLSWFDPWGQGTLVTVSS
VL: DIQMTQSPSNLSASVGDRVTITCRASQNINTWLAWYQHKPGKPPKLRIYQASTLESGVPSRFSGSGSGTIFTLTISSLQPDDFGTYYCQQNNSYPYTFGQGTKLEINR
notes: Fully human IgG1 kappa made by a hybridoma from B cells of a PAP patient; also called 4E10; E10.20
[1]
  Kd: 0.87 nM and ~0.87 nM
  koff: 2.16e-05 s⁻¹
  kon: 24700 M⁻¹ s⁻¹
H IL-3
  binding result: no binding
H IL-5
  binding result: no binding
hIL-1a
  binding result: no binding
Murine GM-CSF
  binding result: no binding
BSA
  binding result: no binding
H IL-2
  binding result: no binding
IL-6
  binding result: no binding
H IL-4
  binding result: no binding
hIL-13
  binding result: no binding
Human mesothelin [2]
  binding result: no binding
HEL [3]
  binding result: no binding
SEB [4]
  binding result: no binding

B2: anti-GM-CSF human IgG1 monoclonal antibody G9 (antibody, V domains shown)
VH: EVQLVESGGGLVQPGGSLRLSCAASGFTFSRHWMHWLRQVPGKGPVWVSRINGAGTSITYADSVRGRFTISRDNANNTLFLQMNSLRADDTALYFCARANSVWFRGLFDYWGQGTPVTVSS
VL: EIVLTQSPVTLSVSPGERVTLSCRASQSVSTNLAWYQQKLGQGPRLLIYGASTRATDIPARFSGSGSETEFTLTISSLQSEDFAVYYCQQYDKWPDTFGQGTKLEIKR
notes: Fully human IgG1 kappa made by a hybridoma from B cells of a PAP patient; also called 10G9; 10G9.1
[5]
  binding result: binds
Human mesothelin [6]
  binding result: no binding
HEL [7]
  binding result: no binding
SEB [8]
  binding result: no binding
[1]
  Kd: 0.0109 nM and 0.011 nM to 0.017 nM (2×)
  koff: 9.27e-05 s⁻¹
  kon: 8.47e+06 M⁻¹ s⁻¹
[9]
  binding result: binds
[10]
  binding result: binds
[11]
  binding result: binds
[12]
  binding result: binds
[13]
  Kd: 0.014 nM

Source: patent US20080292641A1 (MORPHOTEK, published 2008)
